In the Immune Epitope Database (IEDB) one finds IC50 and Kd data, which are given here for 28 sequences.

In experiment [1] the target is HLA-A*01:01. Kind of experiment: IEDB peptide-MHC binding, purified MHC/competitive/fluorescence; ≥ and ≤ were set here for values at or beyond the usual limits of such assays.
The next experiment addresses HLA-A*24:02. Described as above.
The next experiment concerns the target HLA-B*07:02. Described as above.
Experiment [2] has as its target HLA-A*02:01. The description is as above.
The next experiment concerns the target HLA-B*08:01. The experiment is described as above.
In experiment [3] the target is HLA-B*15:01. Described as above.
In a further experiment the target is HLA-A*69:01. As to the kind of experiment: IEDB peptide-MHC binding, purified MHC/competitive/fluorescence; filed as Kd, often an IC50 or EC50 that approximates it; ≥ and ≤ were set here for values at or beyond the usual limits of such assays. As to conditions: source organism: Zaire ebolavirus.
Experiment [4] has as its target HLA-B*51:01. The experiment is described as above. As to conditions: source organism: Zaire ebolavirus.
The next experiment addresses HLA-B*27:03. The description is as above. The settings on record: source organism: Zaire ebolavirus.
A further experiment addresses HLA-A*26:01. The description is as above. As to conditions: source organism: Zaire ebolavirus.
Experiment [5] has as its target HLA-B*57:01. The experiment is described as above. The settings on record: source organism: Zaire ebolavirus.
The target in the next experiment is HLA-B*27:05. Kind of experiment: IEDB peptide-MHC binding, purified MHC/direct/fluorescence; filed as Kd, often an IC50 or EC50 that approximates it; ≥ and ≤ were set here for values at or beyond the usual limits of such assays. As to conditions: source organism: Zaire ebolavirus.
In a further experiment the target is HLA-A*29:02. The experiment is described as above. The settings on record: source organism: Zaire ebolavirus.
Experiment [6] concerns the target HLA-A*03:01. The description is as above. As to conditions: source organism: Zaire ebolavirus.
The target in the next experiment is HLA-A*68:02. Described as above. As to conditions: source organism: Zaire ebolavirus.
In experiment [7] the target is HLA-B*15:01. The experiment is described as above. The settings on record: source organism: Zaire ebolavirus.
The target in a further experiment is HLA-A*02:19. The experiment is described as above. The settings on record: source organism: Zaire ebolavirus.
The target of a further experiment is HLA-B*58:01. The description is as above.
The target of a further experiment is HLA-A*11:01. Kind of experiment: IEDB peptide-MHC binding, purified MHC/competitive/fluorescence; ≥ and ≤ were set here for values at or beyond the usual limits of such assays.
Experiment [8] has as its target HLA-A*03:01. The description is as above.
The target of experiment [9] is HLA-B*51:01. Kind of experiment: IEDB peptide-MHC binding, purified MHC/direct/fluorescence; filed as Kd, often an IC50 or EC50 that approximates it; ≥ and ≤ were set here for values at or beyond the usual limits of such assays. As to conditions: source organism: Dengue virus.
A further experiment deals with HLA-B*39:01. As to the kind of experiment: IEDB peptide-MHC binding, purified MHC/competitive/fluorescence; filed as Kd, often an IC50 or EC50 that approximates it; ≥ and ≤ were set here for values at or beyond the usual limits of such assays. As to conditions: source organism: Zaire ebolavirus.
The next experiment concerns the target HLA-B*46:01. Described as above. The settings on record: source organism: Zaire ebolavirus.
For experiment [10], the target named is HLA-A*02:01. The experiment is described as above. The settings on record: source organism: Zaire ebolavirus.
The next experiment addresses HLA-A*23:01. As to the kind of experiment: IEDB peptide-MHC binding, purified MHC/direct/fluorescence; filed as Kd, often an IC50 or EC50 that approximates it; ≥ and ≤ were set here for values at or beyond the usual limits of such assays. As to conditions: source organism: Zaire ebolavirus.
The next experiment concerns the target HLA-A*02:03. The experiment is described as above. As to conditions: source organism: Zaire ebolavirus.
For another experiment, the target named is HLA-A*24:03. The experiment is described as above. The settings on record: source organism: Zaire ebolavirus.
In a further experiment the target is HLA-A*02:11. The description is as above. The settings on record: source organism: Zaire ebolavirus.
Experiment [11] addresses HLA-A*01:01. The description is as above. The settings on record: source organism: Zaire ebolavirus.
Another experiment deals with HLA-A*02:16. Described as above. As to conditions: source organism: Zaire ebolavirus.
The target of a further experiment is HLA-A*02:12. The experiment is described as above. As to conditions: source organism: Zaire ebolavirus.
The next experiment addresses HLA-B*15:17. The description is as above. As to conditions: source organism: Salmonella enterica subsp. enterica serovar Typhimurium.
A further experiment deals with HLA-C*15:02. Described as above. As to conditions: source organism: Salmonella enterica subsp. enterica serovar Typhi str. CT18.
In experiment [12] the target is HLA-B*57:01. The description is as above. The settings on record: source organism: Salmonella enterica.
[13] abbreviates: source organism: Zaire ebolavirus.
[14] abbreviates: source organism: Vaccinia virus.
The mark [15] stands for this setting: source organism: Sudan ebolavirus.
The mark [16] stands for this setting: source organism: Vaccinia virus Copenhagen.

The term IC50 denotes the point on the concentration scale where inhibition reaches its midpoint. Lower therefore signals greater potency in that assay. Take ESDMDYHKI: the figures for the IC50 in the experiment with HLA-A*01:01 [1] (setting [13]) and with HLA-A*24:02 (setting [13]) were at least 118 µM and at least 111 µM, respectively.
As to FQRTFSIPL, the IC50 with HLA-B*07:02 (setting [13]) is 3.92 µM; in the experiment with HLA-A*02:01 [2] (setting [13]), 3.55 µM; with HLA-B*08:01 (setting [13]), 5.48 µM; with HLA-B*15:01 [3] (setting [13]), 2.2 µM; in the experiment with HLA-A*24:02 (setting [13]), 47 µM.
In the case of GCLRIQSLM, the IC50 is 9.58 µM in the experiment with HLA-A*02:01 [2] (setting [14]), at least 697 µM with HLA-B*08:01 (setting [14]) and at least 591 µM in the experiment with HLA-B*15:01 [3] (setting [14]).
The term Kd denotes the concentration at which binding is half-saturated. A higher Kd goes with weaker binding. Turning to GQFLSFASL, the Kd is at least 20 µM with HLA-A*69:01; at least 20 µM with HLA-B*51:01 [4]; at least 20 µM with HLA-B*27:03; at least 20 µM in the experiment with HLA-A*26:01; at least 20 µM in the experiment with HLA-B*57:01 [5]; 151 nM with HLA-B*27:05. Further, the dissociation constant (Kd) is at least 20 µM with HLA-A*29:02; at least 20 µM with HLA-A*03:01 [6]; at least 20 µM with HLA-A*68:02; 32 nM with HLA-B*15:01 [7]; at least 20 µM with HLA-A*02:19; at least 20 µM in the experiment with HLA-B*58:01 (setting [13]). The half-inhibitory concentration (IC50) with HLA-A*02:01 [2] (setting [13]) came to 3.42 µM; with HLA-B*15:01 [3] (setting [13]), 1.27 µM; with HLA-A*24:02 (setting [13]), 19.5 µM.
Consider GTGPCPGDY, for which the figures for the half-maximal inhibitory concentration (IC50) with HLA-A*01:01 [1] (setting [15]) and with HLA-A*11:01 (setting [15]) were 10.8 µM and at least 114 µM, respectively.
With HKNKFMAIL, the IC50 with HLA-A*02:01 [2] (setting [13]) was at least 782 µM; in the experiment with HLA-B*08:01 (setting [13]), 42.7 µM; with HLA-B*15:01 [3] (setting [13]) it was at least 443 µM; with HLA-A*24:02 (setting [13]), 50.9 µM.
As for KLLLWFNYL, the half-maximal inhibitory concentration (IC50) with HLA-A*03:01 [8] (source organism: Variola virus) was at least 699 µM; in the experiment with HLA-A*11:01 (source organism: Variola virus) it was at least 140 µM.
On to KPVPNRSTK, for which the IC50 with HLA-B*07:02 (setting [13]) is 30.9 µM; with HLA-A*03:01 [8] (setting [13]), at least 166 µM; in the experiment with HLA-A*11:01 (setting [13]), at least 115 µM.
In the case of KQKFPYEGG, the IC50 with HLA-B*15:01 [3] (setting [14]) was at least 233 µM.
For LFLESGAVK, the results for the IC50 in the experiment with HLA-A*03:01 [8] (setting [13]), with HLA-A*24:02 (setting [13]) and in the experiment with HLA-A*11:01 (setting [13]) were at least 192 µM, 15.2 µM and 68.8 µM, respectively.
As for LIIDEVHEH, the figures for the IC50 with HLA-A*02:01 [2] (source organism: Variola virus), with HLA-B*15:01 [3] (source organism: Variola virus) and with HLA-A*11:01 (source organism: Variola virus) were at least 99.4 µM, at least 128 µM and 69.2 µM, respectively.
With QPEWFRNIL, the half-maximal inhibitory concentration (IC50) with HLA-B*07:02 (source organism: Influenza A virus (A/Oklahoma/309/2006(H3N2))) is 0.188 µM.
For QQYAESREL, the half-maximal inhibitory concentration (IC50) is at least 134 µM in the experiment with HLA-B*07:02 (setting [13]), 58.2 µM with HLA-A*02:01 [2] (setting [13]), 15.7 µM in the experiment with HLA-B*15:01 [3] (setting [13]) and at least 72.4 µM with HLA-A*24:02 (setting [13]).
With QVEQHHRRT, the IC50 in the experiment with HLA-A*03:01 [8] (setting [13]) is 3.08 µM; with HLA-A*02:01 [2] (setting [13]), at least 252 µM; with HLA-A*11:01 (setting [13]) it was 0.543 µM.
For the sequence RSDGYFLKI, the IC50 with HLA-A*02:01 [2] (setting [16]) stood at 4.94 µM; with HLA-A*01:01 [1] (setting [16]), 3.4 µM; with HLA-A*24:02 (setting [16]), 16.4 µM.
On to SLSKRERQL, for which the results for the IC50 with HLA-B*07:02 (setting [16]) and in the experiment with HLA-B*08:01 (setting [16]) were 57.5 µM and at least 76.3 µM, respectively.
In the experiment with HLA-A*03:01 [8] (source organism: Variola virus), SMRDQRKGR yielded a 50% inhibitory concentration (IC50) of 6.32 µM.
SPRMLTPIN: in the experiment with HLA-B*07:02 (setting [13]), the IC50 came out at 5.08 µM.
As for SPSKLASAI, in the experiment with HLA-B*51:01 [9], the Kd is at least 20 µM.
With STHNTPVYK, the IC50 in the experiment with HLA-A*03:01 [8] (setting [13]) is 5.02 µM; in the experiment with HLA-A*02:01 [2] (setting [13]), at least 323 µM; with HLA-A*24:02 (setting [13]), at least 134 µM; with HLA-A*11:01 (setting [13]), 0.44 µM.
Sequence TENTSSYYA yielded an IC50 in the experiment with HLA-A*01:01 [1] (setting [15]) of at least 142 µM.
In the case of THKLSLTKL, the half-inhibitory concentration (IC50) with HLA-A*03:01 [8] (source organism: Variola virus) is at least 149 µM; with HLA-A*11:01 (source organism: Variola virus), 46.2 µM.
In the case of TTEANAGQF, the Kd in the experiment with HLA-A*69:01, with HLA-B*39:01, in the experiment with HLA-B*51:01 [4], in the experiment with HLA-B*46:01, with HLA-A*02:01 [10] and with HLA-B*27:03 was at least 20 µM in each case. For the same sequence, the dissociation constant Kd in the experiment with HLA-A*26:01, with HLA-B*57:01 [5], with HLA-A*23:01, with HLA-A*03:01 [6], with HLA-A*02:03 and with HLA-A*24:03 was at least 20 µM each time. The Kd in the experiment with HLA-A*02:11, with HLA-A*68:02, in the experiment with HLA-A*01:01 [11], with HLA-A*02:16, with HLA-A*02:19 and in the experiment with HLA-A*02:12 was at least 20 µM each time. For the same sequence, the concentration for half-maximal inhibition (IC50) in the experiment with HLA-A*01:01 [1] (setting [13]) is at least 109 µM; with HLA-A*24:02 (setting [13]), 22 µM.
Consider TTHHTIPLL, for which the dissociation constant (Kd) with HLA-B*15:17 is 65.9 nM; with HLA-C*15:02 it was at least 20 µM; with HLA-B*58:01 (source organism: Salmonella enterica subsp. enterica serovar Typhimurium), 3.24 µM; with HLA-B*57:01 [12] it was 4 µM.
Turning to YPTAWQSVG, the results for the half-maximal inhibitory concentration (IC50) with HLA-B*07:02 (setting [13]) and with HLA-A*24:02 (setting [13]) were at least 174 µM and at least 209 µM, respectively.
Take YQVNNLEEI: the 50% inhibitory concentration (IC50) in the experiment with HLA-A*02:01 [2] (setting [13]) came out at 25.6 µM; in the experiment with HLA-B*15:01 [3] (setting [13]), 54.9 µM; with HLA-A*24:02 (setting [13]), 1.66 µM.
Turning to YTEGLMHNQ, the concentration for half-maximal inhibition (IC50) in the experiment with HLA-A*01:01 [1] (setting [15]) was at least 135 µM.
For YYATSYLEY, the half-inhibitory concentration (IC50) is at least 110 µM with HLA-A*01:01 [1] (setting [15]), at least 244 µM in the experiment with HLA-B*15:01 [3] (setting [15]) and 0.676 µM in the experiment with HLA-A*24:02 (setting [15]).
